Data reported in publication doi:10.1101/2020.04.29.069500.

Target: first Tudor domain of PHF20L1 (PHF20L1 Tudor1) (UniProt A8MW92)
Test: NMR titration

UniProt A8MW92, sequence (A8MW92 5-70): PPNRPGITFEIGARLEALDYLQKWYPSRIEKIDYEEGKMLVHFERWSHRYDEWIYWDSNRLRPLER

A Kd of 670 µM was found for “K142 mono-methylated (K142me1) DNMT1 peptide” in this work.
